The source of these data is patent US20160264674A1 (ADURO BIOTECH HOLDINGS EUROPE B V, published 2016).

The target in test [1] is T1, FLAG-tagged human APRIL (human, UniProt O75888 105-250, limits assumed).
T1 construct: also called FLAG-tagged APRIL; FLAG-APRIL; not shown: FLAG tag
T1 sequence (looked up): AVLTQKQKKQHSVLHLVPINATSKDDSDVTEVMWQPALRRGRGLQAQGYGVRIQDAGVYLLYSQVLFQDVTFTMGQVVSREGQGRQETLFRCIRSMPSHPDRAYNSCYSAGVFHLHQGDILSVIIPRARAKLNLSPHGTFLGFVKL
In words: FLAG-APRIL ELISA after 10 min at 70 °C, antibody at 0.316 µg/ml. The procedure:
(§1) The plasmids encoding the VH and VL constructs were mixed in a 1:3 ratio (4 μg in total) and transiently expressed by transfection into HEK293T human embryonic kidney cells (HEK293T/17, ATCC-CRL-11268), using Lipofectamine 2000 transfection reagent (Invitrogen) following the manufacturer's instructions. Cell supernatants were harvested after 5 days and tested for expression of antibody and binding to APRIL using an enzyme-linked immuno assay (ELISA). In these ELISAs, all incubation steps were followed by a wash step with PBST (PBS with 0.01% Tween 20). Maxisorb 96-wells plates (Nunc) were coated with 0.5 μg/ml anti-FLAG (Sigma) or anti-IgG4 (Jackson laboratories) and incubated overnight at 4° C. Subsequently the anti-FLAG coated 96-wells plates were incubated with FLAG-tagged human APRIL for 1 hour at room temperature. Next, supernatants and dilutions thereof were incubated for 1 hour, which was followed by an incubation of 1 hour with mouse anti-human IgG HRP-conjugate (Southern Biotechnology).
(§2) To determine the effect of humanization on the stability of the antibodies, humanized antibodies were exposed to a range of temperatures for 10 minutes. Purified antibodies were diluted to 3.16 μg/ml and dilutions thereof in PBS. Next, these solutions were exposed to 65° C. or 70° C. and residual binding after heat treatment of the antibodies was measured using the FLAG-tagged APRIL ELISA assay as described before (see Table 6).
(ELISA stands for enzyme-linked immunosorbent assay.)

In test [2] the target is T1, FLAG-tagged human APRIL. In words: FLAG-APRIL ELISA after 10 min at 70 °C, antibody at 1 µg/ml.
Test [3] concerns the target T1, FLAG-tagged human APRIL. In words: FLAG-APRIL ELISA after 10 min at 70 °C, antibody at 3.16 µg/ml. The procedure: as §1, §2
Test [4] addresses T1, FLAG-tagged human APRIL. In words: FLAG-APRIL ELISA after 10 min at 65 °C, antibody at 1 µg/ml. The procedure: as §1, §2
(§3) In addition, the stability of the substituted humanized antibodies was improved as determined using thermostability studies as described in Example 3 (see Table 9).

Test [5] deals with T1, FLAG-tagged human APRIL. In words: FLAG-APRIL ELISA after 10 min at 65 °C, antibody at 0.316 µg/ml. The procedure: as §1, §2, §3
For test [6], the target named is T1, FLAG-tagged human APRIL. In words: FLAG-APRIL ELISA after 10 min at 65 °C, antibody at 3.16 µg/ml. The procedure: as §1, §2, §3
Test [7] deals with T1, FLAG-tagged human APRIL. In words: ELISA: FLAG-tagged human APRIL captured on anti-FLAG plate, purified antibody titrated. The procedure:
as §1
A subset of humanized antibodies described above was selected for further analyses. Again, plasmids encoding the VH and VL constructs were mixed in a 1:3 ratio (32 μg) and transiently expressed by transfection into (8*10⁶) HEK293T human embryonic kidney cells (HEK293T), using Lipofectamine 2000 transfection reagent (Invitrogen) according to the manufacturer's instructions. Supernatants were harvested (10 ml) and antibodies were purified using MabSelect Sure Protein A resin according to the manufacturer's instructions (GE Healthcare). Buffer was exchanged for PBS using Zeba desalting columns (Thermo Scientific). The concentration of purified antibodies was determined based on OD280 (Nanodrop ND-1000). The binding of the purified antibodies to APRIL was established using the above described APRIL ELISA. The blocking capability of the humanized antibodies with BCMA and TACI receptors, was tested in a competition ELISA. In these ELISAs, all incubation steps were followed by a wash step with PBST (PBS with 0.01% Tween 20). Maxisorb 96-wells plates (Nunc) were coated with 0.5 μg/ml Fc-BCMA (R&D Systems) or Fc-TACI (R&D Systems) and incubated overnight at 4° C. Next, humanized antibodies and dilutions thereof were incubated, premixed with FLAG-tagged APRIL, for 1 hour, which was followed by an incubation of 1 hour with anti-FLAG HRP-conjugate (Sigma).

The target in test [8] is T1, FLAG-tagged human APRIL. In words: FLAG-APRIL ELISA after 10 min at 70 °C, antibody at 0.316 µg/ml. The source holds these as a separate data set.
For test [9], the target named is T1, FLAG-tagged human APRIL. In words: FLAG-APRIL ELISA after 10 min at 70 °C, antibody at 3.16 µg/ml. This is another data set of the same source.
For test [10], the target named is T1, FLAG-tagged human APRIL. In words: FLAG-APRIL ELISA after 10 min at 65 °C, antibody at 0.316 µg/ml. The procedure: as §1, §2
This is another data set of the same source.

The target in test [11] is T1, FLAG-tagged human APRIL. In words: FLAG-APRIL ELISA after 10 min at 65 °C, antibody at 3.16 µg/ml. The procedure: as §1, §2
This is another data set of the same source.

In test [12] the target is T1, FLAG-tagged human APRIL. In words: FLAG-APRIL ELISA after 10 min at 65 °C, antibody at 1 µg/ml. The procedure:
as §1, §2
The source holds these as a separate data set.

Test [13] deals with T1, FLAG-tagged human APRIL. In words: FLAG-APRIL ELISA after 10 min at 70 °C, antibody at 1 µg/ml. The procedure: as §1, §2
This is another data set of the same source.

The EC50 is the concentration giving half of the maximal effect. A high value points to lower potency in that assay.

Residue numbers refer to the chain shown, from its start. Names and notes keep the numbering of the source.

B1: VH14.VL15 (antibody, human IgG4 S228P, kappa, V domains shown)
VH: QVQLVQSGAEVKKPGASVKVSCKASGYTFTSYVMHWVRQAPGQGLEWMGYINPYNDAPKYNEKFKGRVTMTRDTSASTAYMELSSLRSDDTAVYYCARGLGYALYYAMDYWGQGTTVTVSS
VL: DIVMTQSPSTLSASVGDRVTITCKASQNVGNNVAWYQQKPGKAPKLLISSASNRDSGVPSRFSGSGSGTEFTLTISSLQPDDFATYFCQQYNIYPFTFGQGTKLEIKR
notes: Humanized IgG4 (S241P, Kabat) with human kappa, from HEK293T
On to B1, for which the “% residual binding after heat treatment (room temperature = 100%)” value (“% residual binding after heat treatment” below) in test [1] came out at 63.1%; in test [2] it was 55.1%; in test [3], 50%; in [4], 47.5%; in test [5], 67.5%; in [6], 59%. For the same molecule, the “% residual binding after heat treatment” value in test [8] is 79.1%; in test [9], 58.6%; in test [10] it was 63.7%; in test [11], 58.6%; in [12] it was 45.2%; in test [13] it was 42.5%. This molecule gave a concentration for a half-maximal effect (EC50) in test [7] of 48.3 nM.

B2: VH12.VL15 (antibody, human IgG4 S228P, kappa, V domains shown)
VH: B1 VH with A76I, S85R
VL: B1 VL
notes: Humanized IgG4 (S241P, Kabat) with human kappa, from HEK293T; also called 12.15
B2: the “% residual binding after heat treatment” value in [1] amounted to 70.3%; in [3] it was 50.2%; in [10], 74.3%; in [11], 66.4%; in [12] it was 49.8%; in test [13] it was 51.8%. This molecule had a concentration giving a half-maximal response (EC50) in test [7] of 19.8 nM.

B3: VH13.VL15 (antibody, human IgG4 S228P, kappa, V domains shown)
VH: B1 VH with A76T, A79V, D89E, T116M
VL: B1 VL
notes: Humanized IgG4 (S241P, Kabat) with human kappa, from HEK293T; also called 13.15
With B3, the “% residual binding after heat treatment” value in test [1] amounted to 65%; in test [3] it was 80.5%; in [10], 66.1%; in [11], 76.2%; in [12], 44.4%; in test [13] it was 47.4%. For the same molecule, the EC50 in [7] came to 223 nM.
